One data set addresses Cdc2-AF/CyclinB1 complex (UniProt P06493).
Data set [1] deals with wild-type Cdc2/cyclin B1 complex (UniProt P06493).
Data set [2] has as its target Cdc2-F15/CyclinB1 complex (UniProt P06493).
Data set [3] addresses kinase-deficient Cdc2 mutant (K-) complexed with cyclin B1 (UniProt P06493).

Sequence of full-length human Wee1 with N-terminal Glu-Glu tag, expressed in Sf9 cells (chain, as listed by the source): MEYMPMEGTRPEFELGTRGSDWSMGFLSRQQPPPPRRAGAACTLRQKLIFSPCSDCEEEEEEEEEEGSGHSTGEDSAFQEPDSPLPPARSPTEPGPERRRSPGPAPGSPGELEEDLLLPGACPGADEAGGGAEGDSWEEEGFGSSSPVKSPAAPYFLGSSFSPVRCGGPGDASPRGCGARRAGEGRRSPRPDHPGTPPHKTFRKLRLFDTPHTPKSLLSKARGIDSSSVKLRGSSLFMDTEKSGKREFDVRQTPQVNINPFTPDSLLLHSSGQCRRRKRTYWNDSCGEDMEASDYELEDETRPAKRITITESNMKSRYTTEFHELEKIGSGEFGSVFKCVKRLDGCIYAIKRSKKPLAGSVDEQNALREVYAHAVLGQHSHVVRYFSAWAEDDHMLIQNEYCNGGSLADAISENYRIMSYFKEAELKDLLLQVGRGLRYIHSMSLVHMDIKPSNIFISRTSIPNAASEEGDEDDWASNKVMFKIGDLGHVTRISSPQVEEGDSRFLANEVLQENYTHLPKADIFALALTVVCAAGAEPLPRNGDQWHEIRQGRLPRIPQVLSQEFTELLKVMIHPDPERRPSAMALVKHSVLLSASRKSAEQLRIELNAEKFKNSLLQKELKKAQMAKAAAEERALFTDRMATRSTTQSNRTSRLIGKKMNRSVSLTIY
Sequence of wild-type Cdc2/cyclin B1 complex (P06493 whole entry, looked up, one chain of several): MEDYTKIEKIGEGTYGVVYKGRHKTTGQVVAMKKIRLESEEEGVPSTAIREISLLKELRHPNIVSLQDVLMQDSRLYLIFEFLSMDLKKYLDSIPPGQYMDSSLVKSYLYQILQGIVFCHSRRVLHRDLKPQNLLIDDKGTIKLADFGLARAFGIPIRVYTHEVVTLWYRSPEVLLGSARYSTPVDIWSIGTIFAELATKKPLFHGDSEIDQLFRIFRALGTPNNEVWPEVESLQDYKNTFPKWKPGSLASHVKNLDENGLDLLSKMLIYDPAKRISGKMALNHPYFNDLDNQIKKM
Sequence of Cdc2-F15/CyclinB1 complex (P06493 whole entry, looked up, one chain of several): as above
Sequence of kinase-deficient Cdc2 mutant (K-) complexed with cyclin B1 (P06493 whole entry, looked up, change not shown, one chain of several): as the sequence (P06493 whole entry, looked up, one chain of several) above
Sequence of Cdc2-AF/CyclinB1 complex (P06493 whole entry, looked up, one chain of several): as above

“full-length human Wee1 with N-terminal Glu-Glu tag, expressed in Sf9 cells”: the “histone H1 kinase activity in mixed Sf9 lysates” value was “Cdc2-F15/CyclinB1 and Cdc2-AF/CylinB1 complexes retained full activity in the presence of Wee1 lysates” in the data set with Cdc2-AF/CyclinB1 complex; “Cdc2-F15/CyclinB1 and Cdc2-AF/CylinB1 complexes retained full activity in the presence of Wee1 lysates” in data set [2]. Further, the “histone H1 kinase activity of Cdc2/CyclinB1 in mixed Sf9 lysates” value in data set [1] was “the addition of Wee1 lysates effectively inhibited Cdc2/CyclinB1 kinase activation”. Besides, the “phosphoamino acid analysis of 32P-labeled Cdc2” value in data set [3] is “the Tyrosine 15 residue was readily phosphorylated by full-length Wee1”.

The values are drawn from patent US6558918.
